Source: patent US20240093255A1, “BIOSYNTHETIC PRODUCTION OF 2-FUCOSYLLACTOSE” (Conagen Inc., priority 2020, published 2024)

B1: Ec WT: GDP-mannose-4,6-dehydratase from Escherichia coli, wild type, SEQ ID NO: 11 (protein, listed as Escherichia coli)
chain: MSKVALITGVTGQDGSYLAEFLLEKGYEVHGIKRRASSFNTERVDHIYQDPHTCNPKFHLHYGDLSDTSNLTRILREVQPDEVYNLGAMSHVAVSFESPEYTADVDAMGTLRLLEAIRFLGLEKKTRFYQASTSELYGLVQEIPQKETTPFYPRSPYAVAKLYAYWITVNYRESYGMYACNGILFNHESPRRGETFVTRKITRAIANIAQGLESCLYLGNMDSLRDWGHAKDYVKMQWMMLQQEQPEDFVIATGVQYSVRQFVEMAAAQLGIKLRFEGTGVEEKGIVVSVTGHDAPGVKPGDVIIAVDPRYFRPAEVETLLGDPTKAHEKLGWKPEITLREMVSEMVANDLEAAKKHSLLKSHGYDVAIALES
B2: Hs GMD wild type: GDP-mannose-4,6-dehydratase from Homo sapiens, wild type, SEQ ID NO: 9 (protein, listed as Homo sapiens)
chain: MRNVALITGITGQDGSYLAEFLLEKGYEVHGIVRRSSSFNTGRIEHLYKNPQAHIEGNMKLHYGDLTDSTCLVKIINEVKPTEIYNLGAQSHVKISFDLAEYTADVDGVGTLRLLDAVKTCGLINSVKFYQASTSELYGKVQEIPQKETTPFYPRSPYGAAKLYAYWIVVNFREAYNLFAVNGILFNHESPRRGANFVTRKISRSVAKIYLGQLECFSLGNLDAKRDWGHAKDYVEAMWLMLQNDEPEDFVIATGEVHSVREFVEKSFLHIGKTIVWEGKNENEVGRCKETGKVHVTVDLKYYRPTEVDFLQGDCTKAKQKLNWKPRVAFDELVREMVHADVELMRTNPNA
B3: Hs GMD M3: mutant human GMD targeting the GDP-L-fucose allosteric binding pocket, SEQ ID NO: 83 (protein)
chain: MRNVALITGITGQDGSYLAEFLLEKGYEVHGIVRRSSSFNTGRIEHLYKNPQAHIEGNMKLHYGDLTDSTCLVKIINEVKPTEIYNLGAQSHVKISFDLAEYTADVDGVGTLRLLDAVKTCGLINSVKFYQASTSELYGKVQEIPQKETTPFYPRSPYGAAKLYAYWIVVNFREAYNLFAVNGILFNHESPRRGANFVTRAISRSVAKIYLGQLECFSLGNLDAKRDWGHAKDYVEAMWLMLQNDEPEDFVIATGEVHSVREFVEKSFLHIGKTIVWEGKNENEVGRCKETGKVHVTVDLKYYRPTEVDFLQGDCTKAKQKLNWKPRVAFDELVREMVHADVELMRTNPNA
modifications: Homo sapiens GMD mutant
B4: Hs GMD M4: mutant human GMD targeting the GDP-L-fucose allosteric binding pocket, SEQ ID NO: 85 (protein)
chain: MRNVALITGITGQDGSYLAEFLLEKGYEVHGIVRRSSSFNTGRIEHLYKNPQAHIEGNMKLHYGDLTDSTCLVKIINEVKPTEIYNLGAQSHVKISFDLAEYTADVDGVGTLRLLDAVKTCGLINSVKFYQASTSELYGKVQEIPQKETTPFYPRSPYGAAKLYAYWIVVNFREAYNLFAVNGILFNHESPRRGANFVTRKISASVAKIYLGQLECFSLGNLDAKRDWGHAKDYVEAMWLMLQNDEPEDFVIATGEVHSVREFVEKSFLHIGKTIVWEGKNENEVGRCKETGKVHVTVDLKYYRPTEVDFLQGDCTKAKQKLNWKPRVAFDELVREMVHADVELMRTNPNA
modifications: Homo sapiens GMD mutant
B5: Hs GMD M2: mutant human GMD targeting the GDP-L-fucose allosteric binding pocket, SEQ ID NO: 81 (protein)
chain: MRNVALITGITGQDGSYLAEFLLEKGYEVHGIVRRSSSFNTGRIEHLYKNPQAAIEGNMKLHYGDLTDSTCLVKIINEVKPTEIYNLGAQSHVKISFDLAEYTADVDGVGTLRLLDAVKTCGLINSVKFYQASTSELYGKVQEIPQKETTPFYPRSPYGAAKLYAYWIVVNFREAYNLFAVNGILFNHESPRRGANFVTRKISRSVAKIYLGQLECFSLGNLDAKRDWGHAKDYVEAMWLMLQNDEPEDFVIATGEVHSVREFVEKSFLHIGKTIVWEGKNENEVGRCKETGKVHVTVDLKYYRPTEVDFLQGDCTKAKQKLNWKPRVAFDELVREMVHADVELMRTNPNA
modifications: Homo sapiens GMD mutant
B6: At GMD M4: mutant Arabidopsis thaliana GMD targeting the GDP-L-fucose allosteric binding pocket, SEQ ID NO: 79 (protein)
chain: MASENNGSRSDSESITAPKADSTVVEPRKIALITGITGQDGSYLTEFLLGKGYEVHGLIRRSSNFNTQRINHIYIDPHNVNKALMKLHYADLTDASSLRRWIDVIKPDEVYNLAAQSHVAVSFEIPDYTADVVATGALRLLEAVRSHTIDSGRTVKYYQAGSSEMFGSTPPPQSETTPFHPRSPYAASKCAAHWYTVNYREAYGLFACNGILFNHESPRRGENFVTRKITAALGRIKVGLQTKLFLGNLQASRDWGFAGDYVEAMWLMLQQEKPDDYVVATEEGHTVEEFLDVSFGYLGLNWKDYVEIDQRYFRPAEVDNLQGDASKAKEVLGWKPQVGFEKLVKMMVDEDLELAKREKVLVDAGYMDAKQQP
modifications: Arabidopsis thaliana GMD mutant
B7: At GMD M2: mutant Arabidopsis thaliana GMD targeting the GDP-L-fucose allosteric binding pocket, SEQ ID NO: 75 (protein)
chain: MASENNGSRSDSESITAPKADSTVVEPRKIALITGITGQDGSYLTEFLLGKGYEVHGLIRRSSNFNTQRINHIYIDPANVNKALMKLHYADLTDASSLRRWIDVIKPDEVYNLAAQSHVAVSFEIPDYTADVVATGALRLLEAVRSHTIDSGRTVKYYQAGSSEMFGSTPPPQSETTPFHPRSPYAASKCAAHWYTVNYREAYGLFACNGILFNHESPRRGENFVTRKITRALGRIKVGLQTKLFLGNLQASRDWGFAGDYVEAMWLMLQQEKPDDYVVATEEGHTVEEFLDVSFGYLGLNWKDYVEIDQRYFRPAEVDNLQGDASKAKEVLGWKPQVGFEKLVKMMVDEDLELAKREKVLVDAGYMDAKQQP
modifications: Arabidopsis thaliana GMD mutant
B8: At GMD M3: mutant Arabidopsis thaliana GMD targeting the GDP-L-fucose allosteric binding pocket, SEQ ID NO: 77 (protein)
chain: MASENNGSRSDSESITAPKADSTVVEPRKIALITGITGQDGSYLTEFLLGKGYEVHGLIRRSSNFNTQRINHIYIDPHNVNKALMKLHYADLTDASSLRRWIDVIKPDEVYNLAAQSHVAVSFEIPDYTADVVATGALRLLEAVRSHTIDSGRTVKYYQAGSSEMFGSTPPPQSETTPFHPRSPYAASKCAAHWYTVNYREAYGLFACNGILFNHESPRRGENFVTRAITRALGRIKVGLQTKLFLGNLQASRDWGFAGDYVEAMWLMLQQEKPDDYVVATEEGHTVEEFLDVSFGYLGLNWKDYVEIDQRYFRPAEVDNLQGDASKAKEVLGWKPQVGFEKLVKMMVDEDLELAKREKVLVDAGYMDAKQQP
modifications: Arabidopsis thaliana GMD mutant
B9: FutC2: α-1,2-fucosyltransferase candidate from Pisciglobus halotolerans, SEQ ID NO: 23 (protein)
chain: MIYTRITSGLGNQMFQYAIAYSYSRKYDMPLILDLTNFKISKKRTYQLDKFKLNDYKKITFKNAPLEIKIFWLVEVLNMISIKLRKKEMKRKNNYNLKSTQFICEKYKEKYNINFDLTNKSLYLSGFWQSPLYFENYRDELIQQFSPNYVLSNKLKEYETKIINCRSVSVHIRRGDFLQHGLFKDVDYQKKAITYLEKKLDNPIFFFFSDDIEWTKEKFKNQKNCFFVSSDSKNSGIEEMYLMSKCENNIIANSTFSWWGAWLNQNQNKIVIAPSTGFGNKDILPKSWYTI
modifications: Pisciglobus halotolerans
B10: FutC10: α-1,2-fucosyltransferase candidate from Thermosynechococcus elongatus, SEQ ID NO: 39 (protein, listed as Thermosynechococcus elongatus)
chain: MIIVRLCGGLGNQMFQYAAGLAAAHRIGSEVKFDTHWFDATCLHQGLELRRVFGLELPEPSSKDLRKVLGACVHPAVRRLLSRRLLRALRPKSLVIQPHFHYWTGFEHLTDNVYLEGYWQSERYFSNIADIIRQQFRFVEPLDPHNAALMDEMQSGVSVSLHIRRGDYFNNPQMRRVHGVDLSEYYPAAVATMIEKTNAERFYVFSDDPQWVLEHLKLPVSYTVVDHNRGAASYRDMQLMSACRHHIIANSTFSWWGAWLNPRPDKVVIAPRHWFNVDVFDTRDLYCPEWIVL
B11: FutC5: α-1,2-fucosyltransferase candidate from Lachnospiraceae bacterium XBB2008, SEQ ID NO: 29; parent of ASR12 (protein)
chain: MIILQMSGGLGNQMFQYALYLKLKKLGREVKFDDETSYELDNARPVQLAVFDITYPRATRQEVTDMRDSSPAWKDRIRRKLKGRNLKQYTEANYSYDEHVFELDDTYLRGYFQTEKYFSDIRDEIYKTYTMRKDLITEQTTQYEEDILSHENSVSIHIRRGDYMTIEGGEIYAGICTDEFYDSAIKYVLERHPDAVFYLFTNDSSWAEYFCNIHSDVNIHVVEGNTEYFGYLDMYLMSRCKHHIVANSSFSWWGAWLGRDADGMVIAPDPWFNCSNCADIHTDRMILIDPKGELLTDDKGVRNESEE
modifications: Lachnospiraceae bacterium XBB2008
notes: parent of ASR12

Experiment: GDP-L-fucose inhibition assay of GMD enzymes (GDP-4-keto-6-deoxymannose detection)
Format: biochemical
Conditions: 350 μM GDP-L-fucose; 1 mM GDP-mannose, 0.5 mg/mL GMD
Procedure: To test for inhibition, the mutants were expressed and purified as described in Example 7, and assayed at a range of GDP-L-fucose concentrations. The assay conditions were as follows: 50 mM Tris pH 7.5, 1 mM GDP-mannose, 0.5 mM NADP^+, 0.5 mg/mL dehydratase (GMD) enzyme, and 0 μM, 70 μM or 350 μM GDP-L-fucose. The reactions were quenched at 99° C. for 10 minutes, and the enzymes' respective activities were analyzed using the nucleotide sugar LC-MS method by GDP-4-keto-6-deoxymannose detection.

| Molecule | decrease in activity [%] | retained activity |
| --- | --- | --- |
| B1 | 80 | – |
| B2 | – | less than 5% |
| B3 | – | 100% |
| B4 | – | 100% |
| B5 | – | 80% |
| B6 | – | 100% |
| B7 | – | 40% |
| B8 | – | 50% |

Experiment: FutC candidate activity in vitro using the de novo synthesis pathway (2′-FL by HPLC)
Format: biochemical
Conditions: 0.2 mg/mL fucosyltransferase, 1 mM GDP-mannose, 80 mM lactose, room temperature, 16 hours
Procedure: The final step in the novel path to 2′-FL requires an α-1,2-fucosyltransferase. Various FutC candidates were screened for soluble expression in E. coli and fucosyltransferase activity. The candidate enzymes show different solubilities and enzymatic activity for 2′-FL synthesis. For the candidates that have highly soluble expression, their activity was tested in vitro using the de novo synthesis pathway. The reaction conditions were: 50 mM Tris-HCl pH 8.0, 2 mM NADPH, 0.1 mM NADP^+, 1 mM GDP-mannose, 80 mM lactose, 0.9 mg/mL Ec Gmd (SEQ 11), 0.2 mg/mL Ec WcaG (SEQ ID NO: 7) and 0.2 mg/mL of the fucosyltransferase candidates. The reactions were incubated at room temperature for 16 hours. The reactions were quenched by heating at 99° C. for 10 minutes, and then analyzed by HPLC.

| Molecule | α-1,2-fucosyltransferase activity for 2′-FL production |
| --- | --- |
| B9 | have α-1,2-fucosyltransferase activity for 2′-FL production |
| B10 | have α-1,2-fucosyltransferase activity for 2′-FL production |
| B11 | have α-1,2-fucosyltransferase activity for 2′-FL production |
